# Source: patent US20170088602A1 (Bristol-Myers Squibb, published 2017)
# Residue numbers refer to the chain shown, from its start.
# T1: human BMP-11 (GDF-11; R&D Systems) (human, UniProt O95390 299-407)
# T1 sequence (looked up): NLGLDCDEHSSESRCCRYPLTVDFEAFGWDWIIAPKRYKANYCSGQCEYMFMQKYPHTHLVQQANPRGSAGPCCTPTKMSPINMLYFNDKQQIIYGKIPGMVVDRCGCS
# T2: human myostatin (mature, recombinant; R&D Systems) (human, UniProt O14793 267-375)
# T2 sequence: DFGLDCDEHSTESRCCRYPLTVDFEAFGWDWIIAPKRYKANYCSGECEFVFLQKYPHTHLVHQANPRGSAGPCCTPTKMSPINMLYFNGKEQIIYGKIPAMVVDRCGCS
# T3: human Activin A (R&D Systems) (human, UniProt P08476 311-426)
# T3 sequence (looked up): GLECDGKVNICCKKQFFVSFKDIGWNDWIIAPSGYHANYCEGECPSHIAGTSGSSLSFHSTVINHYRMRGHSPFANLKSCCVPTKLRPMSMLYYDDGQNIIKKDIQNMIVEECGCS
# B1: 3007_B08 (designed binder)
# chain: MGVSDVPRDLEVVAATPTSLLISWSLPTPGLAHYYRITYGETGGNSPVQEFTVPGRGVTATISGLKPGVDYTITVYAVTVTHHGVIGYKPISINYRTEIDKPSQHHHHHH
# B2: 2987_D05 (designed binder)
# chain: B1 chain with T28H, P29A, L31H, V80L, H82R, H83S, G84K, V85I, G87H, K89M
# B3: 2987_E08 (designed binder)
# chain: B1 chain with S25T, T28H, P29A, L31R, T81S, H82S, H83T, G84K, G87H
# B4: 2987_F06 (designed binder)
# chain: B1 chain with T28H, P29A, L31H, V80L, H82K, H83S, G84K, G87H, K89M
# B5: 2987_H02 (designed binder)
# chain: B1 chain with T28Y, P29A, L31H, V80L, H82K, H83S, G84K, G87H, K89M
# B6: 2987_C02 (designed binder)
# chain: B1 chain with T28Y, P29A, L31H, V80L, H82K, H83S, G84K, V85I, G87H, K89M
# B7: 2987_G09 (designed binder)
# chain: B1 chain with S25T, T28H, P29A, L31R, T81S, H82S, H83T, G84K, G87V, K89L
# B8: 2987_F01 (designed binder)
# chain: B1 chain with T28Y, P29A, L31H, V80L, H82R, H83S, G84K, V85I, G87H, K89M
# B9: 2987_G04 (designed binder)
# chain: B1 chain with T28Y, L31H, A32L, H33N, V80L, H82K, H83S, G84K, G87H, K89M
# B10: 2987_A06 (designed binder)
# chain: B1 chain with T28H, P29A, L31H, V80L, H82K, H83S, G84K, V85I, G87H, K89M
# B11: 3007_C10 (designed binder)
# chain: B1 chain with T28S, P29S, L31V, H82N, H83T, G87I
# B12: 3008_B08 (designed binder)
# chain: B1 chain with T28H, P29A, L31D, H82R, H83A, V85F, I86Y, G87R
# B13: 3008_A03 (designed binder)
# chain: B1 chain with T28H, P29H, L31F, A32G, H82A, H83T, V85I, G87I
# B14: 3008_D04 (designed binder)
# chain: B1 chain with T28H, P29N, L31V, H82R, H83E, G84E, G87S
# B15: 3008_F01 (designed binder)
# chain: B1 chain with T28R, P29Q, H33N, H82A, H83A, G87I
# B16: 3007_C09 (designed binder)
# chain: B1 chain with T28H, P29R, L31V, H33N, V80L, H82G, H83A, G84N, G87I
# B17: 3146_A08 (designed binder)
# chain: B1 chain with T28N, L31N, H82D, H83T, V85F, G87T
# B18: 3008_G03 (designed binder)
# chain: B1 chain with T28H, A32G, V80I, H82P, H83E, G84T, V85I, G87V
# B19: 3116_C01 (designed binder)
# chain: B1 chain with T28N, L31I, V80L, H82G, H83S, G84D, V85T, G87F
# B20: 3008_G01 (designed binder)
# chain: B1 chain with T28G, L31H, A32F, H82A, H83N, G84Q, V85P, G87I
# B21: 3116_C06 (designed binder)
# chain: B1 chain with T28R, L31N, H82G, H83K, G84D, G87K
# B22: 2987_B04 (designed binder)
# chain: MGVSDVPRDLEVVAATPTSLLISWSLPYPGHLNYYRITYGETGGNSPVQEFTVPGRGVTATISGLKPGVDYTITVYAVTLTKSKIIHYMPISINYRTEIDKPSQHHHHHH
# B23: 2987_E03 (designed binder)
# chain: B22 chain with K82R
# B24: 2987_B09 (designed binder)
# chain: B22 chain with S25T, Y28H, P29A, H31R, L32A, N33H, K82R
# B25: 3115_E06 (designed binder)
# chain: MGVSDVPRDLEVVAATPTSLLISWDAPAGLARYYRITYGETGGNSPVQEFTVVGRGNTATISGLKPGVDYTITVYAVTIFRDGPVTWDPISINYRTEIDKPSQHHHHHH
# B26: 3116_A07 (designed binder)
# chain: B25 chain with A28K
# B27: 3116_H06 (designed binder)
# chain: B25 chain with P84V, T86N, W87Y, D88G
# B28: 3115_D04 (designed binder)
# chain: B25 chain with A28R, V53F, N57T, F80D, P84T, V85R, T86S, W87F
# B29: 3006_A10 (designed binder)
# chain: B25 chain with A28G, V53I, N57S, F80D, P84V, V85N, T86H, W87F, D88A
# B30: ATI-1340 [N-ethylmaleimide] (designed binder)
# chain: MGVSDVPRDLEVVAATPTSLLISWTLPHAGRAHYYRITYGETGGNSPVQEFTVPGRGVTATISGLKPGVDYTITVYAVTVTTTKVIHYKPISINYRTEGSGCHHHHHH
# modifications: N-ethylmaleimide on the Cys of the EGSGC tail
# notes: cysteine mutant of 2987_H07
# Molecular target: T1, human BMP-11 (GDF-11; R&D Systems)
# Assay: cell-based or functional assay
row,ARE-luciferase IC50 [nM],Binder
1,0.23,B1
2,2.4,B2
3,2.8,B3
4,20,B4
5,11,B5
6,7.1,B6
7,0.91,B7
8,6.5,B8
9,3.3,B9
10,23,B10
11,1,B11
12,9.3,B12
13,22.6,B13
14,1.2,B14
15,0.12,B15
16,0.89,B16
17,48,B17
18,1.3,B18
19,6.7,B19
20,0.31,B20
21,8.9,B21
22,3.3,B22
23,2.3,B23
24,0.92,B24
25,2,B25
26,0.5,B26
27,1.6,B27
28,3.6,B28
29,2,B29
30,4.87,B30

# Molecular target: T2, human myostatin (mature, recombinant; …)
# Assay: cell-based or functional assay
row,ARE-luciferase IC50 [nM],Binder
1,0.06,B1
2,0.11,B2
3,0.05,B3
4,0.08,B4
5,0.05,B5
6,0.06,B6
7,0.05,B7
8,0.05,B8
9,0.09,B9
10,0.1,B10
11,0.03,B11
12,0.35,B12
13,0.11,B13
14,0.09,B14
15,0.08,B15
16,0.04,B16
17,0.7,B17
18,0.09,B18
19,0.1,B19
20,0.03,B20
21,0.14,B21
22,0.12,B22
23,0.1,B23
24,0.01,B24
25,0.07,B25
26,0.04,B26
27,0.1,B27
28,0.16,B28
29,0.08,B29
30,0.05,B30

# Molecular target: T3, human Activin A (R&D Systems)
# Assay: cell-based or functional assay
row,ARE-luciferase IC50 [nM],Binder
1,423,B1
2,2000,B2
3,352,B3
4,538,B4
5,794,B5
6,464,B6
7,> 2000,B7
8,594,B8
9,171,B9
10,283,B10
11,> 2000,B11
12,254,B12
13,> 2000,B13
14,720,B14
15,> 2000,B15
16,417,B16
17,> 1000,B17
18,> 2000,B18
19,1000,B19
20,> 2000,B20
21,> 1000,B21
22,239,B22
23,224,B23
24,172,B24
25,> 1000,B25
26,> 1000,B26
27,> 1000,B27
28,> 1000,B28
29,> 2000,B29
30,324,B30

# Molecular target: T2, human myostatin (mature, recombinant; …)
# Assay: cell-based or functional assay
# Remark: another data set of the same source
pSmad2 % inhibition at 10 nM [%],"pSmad2 IC50, 4-point",Binder
97,,B1
76,,B11
90,,B12
87,,B13
92,,B14
86,,B15
80,,B16
,0.78 nM,B17
91,,B18
,0.26 nM,B19
98,,B20
,0.73 nM,B21
,60 pM,B25
,60 pM,B26
,60 pM,B27
,60 pM,B28
51,,B29

# Molecular target: T2, human myostatin (mature, recombinant; …)
# Assay: competitive HTRF (1889E01/myostatin/ActRIIb-Fc sandwich)
# From the text: An HTRF assay was used to measure the binding affinities of anti-myostatin Adnectins to myostatin. […] The Eu-W 1024 labeled Streptavidin is used to bind biotinylated 1889E01. […] In the presence of a competitive Adnectin, the HTRF signal decreases.
row,IC50 [nM],Binder
1,0.14,B1
2,0.14,B11
3,0.37,B12
4,0.22,B13
5,0.14,B14
6,0.21,B15
7,0.14,B16
8,0.26,B17
9,0.13,B18
10,0.35,B19
11,0.11,B20
12,0.18,B21
13,0.14,B25
14,0.11,B26
15,0.13,B27
16,0.2,B28
17,0.15,B29
18,0.16,B30
